Results published in paper PMC10184318, “The fission yeast cytokinetic ring component Fic1 promotes septum formation” (Biology Open, 2023).

B1: Fic1-MBP [S. pombe] / Cyk3-SH3-GST (aa1-66) [S. pombe] (parent complex)
chain 1: MSKNPLGTLVVRIWKAKNLPNKALVGKQSPYCVCRVGEVVKRTQTDKRSGQEPSWNAVLEFNIPSESYHIMKITVFHEGFRKHPHLIGDTVLSFEKAMKEELQSEWYELKNEFQFAGELSVQFKFIPTDPLYFDRASSKPVLQFPYSSVAALTPVPKKPSKPSKPRKKVPVSHPLPPTPPSREEHVSVPRESSLFTYEDDPLPSFPSPYMVDDYYTQDVFVSDNVNDYSYGVQNPTNPRLSVEDYDANHSSLPPVPPPHLILPTASSSQIFH
chain 2: MSIPKQLPCMVRALYAWPGEREGDLKFTEGDLIECLSIGDGKWWIGRHINTNTQGIFPSNFVHCLD

Variants of: B1
Assay: in vitro binding assay (GST pull-down, Coomassie Blue-stained SDS-PAGE, band quantification); parent: 1; read off a plot

response [A.U.]	Variant
~0.19	chain 1 P176A, chain 1 P179A
~0.35	chain 1 P174A, chain 1 P177A
